Experimental findings from paper PMC2819845 (Biochemistry, 2009) are described below.

This data set deals with the molecule itself. As to the kind of experiment: crystal structure.

B1: phosphorylated Sts-2PGM (phospho-His366) (domain or fragment, mouse, UniProt Q3V3E1 354-624, looked up)
chain: ATISRRGILVVRHGERVDQVFGKSWLQQCTTADGKYYRPDLNFPRSLPRRSNGIKDFENDPPLSSCGIFQARLAGEALLDSGVRVTAVFASPALRCVQTAKHILEELKLEKKLKIRVEPGIFEWMKWEASKATLTFLTLEELKEANFNVDLDYRPALPRCSLMPAESYDQYVERCAVSMGQIINTCPQDMGITLIVSHSSALDSCTRPLLGLPPRECGDFAQLVRKIPSLGMCFCEENREDGKWDLVNPPVKTLTHGANSVFNWRNWISSN
modifications: phosphohistidine at 366 (on NE2; occupancy between 0.50 and 0.70, in three of the four monomers)
Take B1: the binding result is “binds”.
